The supplement of paper PMC10567573

B1: CSTF3 (parent)
chain: YVPEKVKKAEKKLEENPYDLDAWS

Variants of: B1
Test: protein stability index of a GFP-peptide fusion (GPS, HEK-293T) (PSI 1-6); higher = more stable
Details: c terminus: a fixed tail appended
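Also: lentivirally expressed fusions sorted by FACS into six bins by GFP to DsRed ratio, PSI derived from sequencing read proportions per bin multiplied by bin number.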

Variant	protein stability index
EVPEKVKKAEKKLEENPYDLDAWS [Y1E]	5.59
WVPEKVKKAEKKLEENPYDLDAWS [Y1W]	4.24
PVPEKVKKAEKKLEENPYDLDAWS [Y1P]	5.24
KVPEKVKKAEKKLEENPYDLDAWS [Y1K]	5.08
RVPEKVKKAEKKLEENPYDLDAWS [Y1R]	5.17
GVPEKVKKAEKKLEENPYDLDAWS [Y1G]	5.31
CVPEKVKKAEKKLEENPYDLDAWS [Y1C]	4.97
FVPEKVKKAEKKLEENPYDLDAWS [Y1F]	2.56
VVPEKVKKAEKKLEENPYDLDAWS [Y1V]	4.97
IVPEKVKKAEKKLEENPYDLDAWS [Y1I]	4.63
LVPEKVKKAEKKLEENPYDLDAWS [Y1L]	4.43
NVPEKVKKAEKKLEENPYDLDAWS [Y1N]	5.14
MVPEKVKKAEKKLEENPYDLDAWS [Y1M]	4.81
SVPEKVKKAEKKLEENPYDLDAWS [Y1S]	5.23
AVPEKVKKAEKKLEENPYDLDAWS [Y1A]	5.5
TVPEKVKKAEKKLEENPYDLDAWS [Y1T]	4.88
HVPEKVKKAEKKLEENPYDLDAWS [Y1H]	3.9
QVPEKVKKAEKKLEENPYDLDAWS [Y1Q]	5.31
DVPEKVKKAEKKLEENPYDLDAWS [Y1D]	5.2
YVPGKVKKAEKKLEENPYDLDAWS [E4G]	2.58
YVPQKVKKAEKKLEENPYDLDAWS [E4Q]	3.41
YVPYKVKKAEKKLEENPYDLDAWS [E4Y]	3.67
YVPWKVKKAEKKLEENPYDLDAWS [E4W]	2.28
YVPKKVKKAEKKLEENPYDLDAWS [E4K]	3.35

Variant	protein stability index
YVPVKVKKAEKKLEENPYDLDAWS [E4V]	2.69
YVPTKVKKAEKKLEENPYDLDAWS [E4T]	2.56
YVPFKVKKAEKKLEENPYDLDAWS [E4F]	2.49
YVPNKVKKAEKKLEENPYDLDAWS [E4N]	2.19
YVPPKVKKAEKKLEENPYDLDAWS [E4P]	2.3
YVPMKVKKAEKKLEENPYDLDAWS [E4M]	1.9
YVPHKVKKAEKKLEENPYDLDAWS [E4H]	2.44
YVPSKVKKAEKKLEENPYDLDAWS [E4S]	1.62
YVPAKVKKAEKKLEENPYDLDAWS [E4A]	3.03
YVPCKVKKAEKKLEENPYDLDAWS [E4C]	2.43
YVPRKVKKAEKKLEENPYDLDAWS [E4R]	2.8
YVPIKVKKAEKKLEENPYDLDAWS [E4I]	2.8
YVPEKVKYAEKKLEENPYDLDAWS [K8Y]	1.72
YVPEKVKWAEKKLEENPYDLDAWS [K8W]	3.37
YVPEKVKAAEKKLEENPYDLDAWS [K8A]	3.58
YVPEKVKTAEKKLEENPYDLDAWS [K8T]	2.37
YVPEKVKSAEKKLEENPYDLDAWS [K8S]	3.26
YVPEKVKEAEKKLEENPYDLDAWS [K8E]	2.9
YVPEKVKIAEKKLEENPYDLDAWS [K8I]	3.65
YVPEKVKVAEKKLEENPYDLDAWS [K8V]	2.21
YVPEKVKDAEKKLEENPYDLDAWS [K8D]	2.48
YVPEKVKCAEKKLEENPYDLDAWS [K8C]	2.34
YVPEKVKQAEKKLEENPYDLDAWS [K8Q]	3.12
YVPEKVKNAEKKLEENPYDLDAWS [K8N]	2.92

Variant	protein stability index
YVPEKVKFAEKKLEENPYDLDAWS [K8F]	3.78
YVPEKVKRAEKKLEENPYDLDAWS [K8R]	2.54
YVPEKVKHAEKKLEENPYDLDAWS [K8H]	2.27
YVPEKVKMAEKKLEENPYDLDAWS [K8M]	2.97
YVLEKVKKAEKKLEENPYDLDAWS [P3L]	1.74
YVSEKVKKAEKKLEENPYDLDAWS [P3S]	2.23
YVWEKVKKAEKKLEENPYDLDAWS [P3W]	1.76
YVHEKVKKAEKKLEENPYDLDAWS [P3H]	2.47
YVREKVKKAEKKLEENPYDLDAWS [P3R]	2.44
YVDEKVKKAEKKLEENPYDLDAWS [P3D]	2.69
YVKEKVKKAEKKLEENPYDLDAWS [P3K]	2.15
YVTEKVKKAEKKLEENPYDLDAWS [P3T]	2.35
YVIEKVKKAEKKLEENPYDLDAWS [P3I]	1.99
YVGEKVKKAEKKLEENPYDLDAWS [P3G]	2.28
YVAEKVKKAEKKLEENPYDLDAWS [P3A]	2.27
YVQEKVKKAEKKLEENPYDLDAWS [P3Q]	1.89
YVVEKVKKAEKKLEENPYDLDAWS [P3V]	1.97
YVYEKVKKAEKKLEENPYDLDAWS [P3Y]	3.21
YVMEKVKKAEKKLEENPYDLDAWS [P3M]	1.79
YVEEKVKKAEKKLEENPYDLDAWS [P3E]	2.7
YVCEKVKKAEKKLEENPYDLDAWS [P3C]	2.46
YVNEKVKKAEKKLEENPYDLDAWS [P3N]	2.12
YVFEKVKKAEKKLEENPYDLDAWS [P3F]	1.89
YVPEKVKKAGKKLEENPYDLDAWS [E10G]	2.97

Variant	protein stability index
YVPEKVKKARKKLEENPYDLDAWS [E10R]	2.63
YVPEKVKKAQKKLEENPYDLDAWS [E10Q]	3.08
YVPEKVKKAAKKLEENPYDLDAWS [E10A]	1.93
YVPEKVKKAIKKLEENPYDLDAWS [E10I]	1.86
YVPEKVKKACKKLEENPYDLDAWS [E10C]	3.32
YVPEKVKKANKKLEENPYDLDAWS [E10N]	3.24
YVPEKVKKAMKKLEENPYDLDAWS [E10M]	1.55
YVPEKVKKADKKLEENPYDLDAWS [E10D]	1.92
YVPEKVKKAWKKLEENPYDLDAWS [E10W]	1.98
YVPEKVKKAHKKLEENPYDLDAWS [E10H]	3.67
YVPEKVKKASKKLEENPYDLDAWS [E10S]	2.56
YVPEKVKKATKKLEENPYDLDAWS [E10T]	1.74
YVPEKVKKAPKKLEENPYDLDAWS [E10P]	2
YVPEKVKKAVKKLEENPYDLDAWS [E10V]	2.18
YVPEKVKKAFKKLEENPYDLDAWS [E10F]	2.32
YVPEKVKKAKKKLEENPYDLDAWS [E10K]	3.68
YVPEKVKKAYKKLEENPYDLDAWS [E10Y]	2.86
YVPEKVKKAEFKLEENPYDLDAWS [K11F]	2.06
YVPEKVKKAECKLEENPYDLDAWS [K11C]	2.65
YVPEKVKKAEDKLEENPYDLDAWS [K11D]	2.07
YVPEKVKKAEEKLEENPYDLDAWS [K11E]	2.54
YVPEKVKKAEIKLEENPYDLDAWS [K11I]	3.43
YVPEKVKKAEMKLEENPYDLDAWS [K11M]	2.42
YVPEKVKKAELKLEENPYDLDAWS [K11L]	2.31

Variant	protein stability index
YVPEKVKKAEGKLEENPYDLDAWS [K11G]	2.01
YVPEKVKKAENKLEENPYDLDAWS [K11N]	2.67
YVPEKVKKAEAKLEENPYDLDAWS [K11A]	2.32
YVPEKVQKAEKKLEENPYDLDAWS [K7Q]	2
YVPEKVRKAEKKLEENPYDLDAWS [K7R]	2.73
YVPEKVVKAEKKLEENPYDLDAWS [K7V]	1.91
YVPEKVWKAEKKLEENPYDLDAWS [K7W]	2.89
YVPEKVCKAEKKLEENPYDLDAWS [K7C]	2.12
YVPEKVIKAEKKLEENPYDLDAWS [K7I]	2.17
YVPEKVEKAEKKLEENPYDLDAWS [K7E]	2.56
YVPEKVNKAEKKLEENPYDLDAWS [K7N]	3.83
YVPEKVAKAEKKLEENPYDLDAWS [K7A]	2.17
YVPEKVDKAEKKLEENPYDLDAWS [K7D]	2.54
YVPEKVGKAEKKLEENPYDLDAWS [K7G]	1.91
YVPEKVFKAEKKLEENPYDLDAWS [K7F]	2.26
YVPEKVLKAEKKLEENPYDLDAWS [K7L]	3.11
YVPEKVTKAEKKLEENPYDLDAWS [K7T]	2.94
YVPEKVMKAEKKLEENPYDLDAWS [K7M]	1.52
YVPEKVYKAEKKLEENPYDLDAWS [K7Y]	2.48
YVPEKVSKAEKKLEENPYDLDAWS [K7S]	2.47
YVPEKVHKAEKKLEENPYDLDAWS [K7H]	3.08
YVPEKVPKAEKKLEENPYDLDAWS [K7P]	3.13
YVPEKVKKREKKLEENPYDLDAWS [A9R]	3.47
YVPEKVKKVEKKLEENPYDLDAWS [A9V]	2.64

Variant	protein stability index
YVPEKVKKKEKKLEENPYDLDAWS [A9K]	2.59
YVPEKVKKWEKKLEENPYDLDAWS [A9W]	3.31
YVPEKVKKLEKKLEENPYDLDAWS [A9L]	2.32
YVPEKVKKYEKKLEENPYDLDAWS [A9Y]	3.21
YVPEKVKKDEKKLEENPYDLDAWS [A9D]	1.65
YVPEKVKKFEKKLEENPYDLDAWS [A9F]	3.1
YVPEKVKKGEKKLEENPYDLDAWS [A9G]	3.46
YVPEKVKKEEKKLEENPYDLDAWS [A9E]	1.96
YVPEKVKKMEKKLEENPYDLDAWS [A9M]	2.16
YVPEKVKKIEKKLEENPYDLDAWS [A9I]	2.59
YVPEKVKKSEKKLEENPYDLDAWS [A9S]	2.27
YVPEKVKKTEKKLEENPYDLDAWS [A9T]	2.66
YVPEKVKKPEKKLEENPYDLDAWS [A9P]	4.02
YVPEKVKKHEKKLEENPYDLDAWS [A9H]	2.85
YVPEKVKKQEKKLEENPYDLDAWS [A9Q]	2.11
YVPEKVKKCEKKLEENPYDLDAWS [A9C]	2.11
YVPEKQKKAEKKLEENPYDLDAWS [V6Q]	2.35
YVPEKEKKAEKKLEENPYDLDAWS [V6E]	2
YVPEKHKKAEKKLEENPYDLDAWS [V6H]	2.04
YVPEKYKKAEKKLEENPYDLDAWS [V6Y]	2.75
YVPEKTKKAEKKLEENPYDLDAWS [V6T]	1.58
YVPEKRKKAEKKLEENPYDLDAWS [V6R]	1.35
YVPEKSKKAEKKLEENPYDLDAWS [V6S]	2.15
YVPEKMKKAEKKLEENPYDLDAWS [V6M]	2.66

Variant	protein stability index
YVPEKWKKAEKKLEENPYDLDAWS [V6W]	2.57
YVPEKDKKAEKKLEENPYDLDAWS [V6D]	2.22
YVPEKIKKAEKKLEENPYDLDAWS [V6I]	3.77
YVPEKNKKAEKKLEENPYDLDAWS [V6N]	2.72
YVPEKPKKAEKKLEENPYDLDAWS [V6P]	1.26
YVPEKGKKAEKKLEENPYDLDAWS [V6G]	2.04
YGPEKVKKAEKKLEENPYDLDAWS [V2G]	4.5
YNPEKVKKAEKKLEENPYDLDAWS [V2N]	4.47
YFPEKVKKAEKKLEENPYDLDAWS [V2F]	4.31
YTPEKVKKAEKKLEENPYDLDAWS [V2T]	3.18
YYPEKVKKAEKKLEENPYDLDAWS [V2Y]	4.37
YSPEKVKKAEKKLEENPYDLDAWS [V2S]	4.67
YMPEKVKKAEKKLEENPYDLDAWS [V2M]	3.92
YEPEKVKKAEKKLEENPYDLDAWS [V2E]	4.84
YLPEKVKKAEKKLEENPYDLDAWS [V2L]	4.51
YCPEKVKKAEKKLEENPYDLDAWS [V2C]	2.32
YRPEKVKKAEKKLEENPYDLDAWS [V2R]	4.48
YQPEKVKKAEKKLEENPYDLDAWS [V2Q]	4.07
YKPEKVKKAEKKLEENPYDLDAWS [V2K]	4.25
YAPEKVKKAEKKLEENPYDLDAWS [V2A]	1.92
YHPEKVKKAEKKLEENPYDLDAWS [V2H]	2.25
YPPEKVKKAEKKLEENPYDLDAWS [V2P]	3.87
YIPEKVKKAEKKLEENPYDLDAWS [V2I]	2.33
YWPEKVKKAEKKLEENPYDLDAWS [V2W]	3.94

Variant	protein stability index
YDPEKVKKAEKKLEENPYDLDAWS [V2D]	4.2
YVPETVKKAEKKLEENPYDLDAWS [K5T]	2.93
YVPENVKKAEKKLEENPYDLDAWS [K5N]	3.5
YVPEFVKKAEKKLEENPYDLDAWS [K5F]	2.19
YVPEMVKKAEKKLEENPYDLDAWS [K5M]	2.04
YVPEDVKKAEKKLEENPYDLDAWS [K5D]	1.9
YVPERVKKAEKKLEENPYDLDAWS [K5R]	2.72
YVPECVKKAEKKLEENPYDLDAWS [K5C]	2.71
YVPEGVKKAEKKLEENPYDLDAWS [K5G]	2.25
YVPEVVKKAEKKLEENPYDLDAWS [K5V]	2.32
YVPEAVKKAEKKLEENPYDLDAWS [K5A]	1.62
YVPEHVKKAEKKLEENPYDLDAWS [K5H]	2.28
YVPEEVKKAEKKLEENPYDLDAWS [K5E]	1.77
YVPEWVKKAEKKLEENPYDLDAWS [K5W]	2.45
YVPEIVKKAEKKLEENPYDLDAWS [K5I]	2.95
YVPESVKKAEKKLEENPYDLDAWS [K5S]	3.44
YVPEPVKKAEKKLEENPYDLDAWS [K5P]	2.55
YVPEYVKKAEKKLEENPYDLDAWS [K5Y]	3.04
YVPEQVKKAEKKLEENPYDLDAWS [K5Q]	2.73
YVPELVKKAEKKLEENPYDLDAWS [K5L]	2.07
